Experiments:
Colo205 [1] = target: T1, Colo205; test: flow cytometry titration on Colo205 cells, geometric mean against antibody concentration [panel FACS - Colo205]
T1 construct: Group of unnamed glycoproteins on whole cells; also called cell surface of Colo205 cells

LS180 = target: T2, LS180; test: flow cytometry titration on LS180 cells, geometric mean against antibody concentration [panel FACS - LS180]
T2 construct: Group of unnamed glycoproteins on whole cells; also called cell surface of LS180 cells

BxPC3 = target: T3, BxPC3; test: flow cytometry titration on BxPC3 cells, geometric mean against antibody concentration [panel FACS - BxPC3]
T3 construct: Group of unnamed glycoproteins on whole cells; also called cell surface of BxPC3 cells

HCT-15 = target: T4, HCT-15; test: flow cytometry titration on HCT-15 cells, geometric mean against antibody concentration [panel FACS - HCT-15]
T4 construct: Group of unnamed glycoproteins on whole cells; also called cell surface of HCT-15 cells

Colo205 [2] = target: T1, Colo205; test: flow cytometry titration on Colo205 cells, Gm value against concentration

Row | Kd (Colo205 [1]) | Kd (LS180) | Kd (BxPC3) | Kd (HCT-15) | Kd (Colo205 [2]) | Binder
1 | 57.3 nM | 110 nM | 118 nM | 15.3 nM |  | CH129 (chimeric FG129, mouse variable regions on human IgG1/kappa constant regions) (antibody, Expressed in CHO-S or HEK293 cells and purified on protein G) heavy: not shown light: DIVMTQSPSSLTVTAGEKVTMSCKSSQSLLNSGNQKNYLTWYQQKPGQPPKVLIYWASTRESGVPDRFTGSGSGTDFTLTISSVQAEDLAVYYCQNDYSSPFTFGSGTKLEIKRTVAAPSVFIFPPSDEQLKSGTASVVCLLNNFYPREAKVQWKVDNALQSGNSQESVTEQDSKDSTYSLSSTLTLSKADYEKHKVYACEVTHQGLSSPVTKSFNRGEC
2 | 53.3 nM | 67.9 nM | 80.2 nM | 42.7 nM |  | FG129 mAb (mouse FG129/29 IgG1 kappa) (antibody, Murine IgG1k from a hybridoma; It recognises the glycans sialyl-di-Lewis a, sialyl-Lewis a-x and mono-sialyl-Lewis a on glycoproteins; also called mAb FG129; F129/29) heavy: EVQLVESGGGLVQPKGSLKLSCAASGFTFNTYAMNWVRQAPGKGLEWVARIRSKSNNYATYYADSVKDRFTISRDDSQSMLYLQMNNLKKEDTAMYYCVGYGSGGNYWGQGTSVTVSSAKTTPPSVYPLAPGSAAQTNSMVTLGCLVKGYFPEPVTVTWNSGSLSSGVHTFPAVLESDLYTLSSSVTVPSSPRPSETVTCNVAHPASSTKVDKKIVPRDCGCKPCICTVPEVSSVFIFPPKPKDVLTITLTPKVTCVVVDISKDDPEVQFSWFVDDVEVHTAQTQPREEQFNSTFRSVSELPIMHQDWLNGKEFKCRVNSAAFPAPIEKTISKTKGRPKAPQVYTIPPPKEQMAKDKVSLTCMITDFFPEDITVEWQWNGQPAENYKNTQPIMNTNGSYFVYSKLNVQKSNWEAGNTFTCSVLHEGLHNHHTEKSLSHSPGK light: DIVMTQSPSSLTVTAGEKVTMSCKSSQSLLNSGNQKNYLTWYQQKPGQPPKVLIYWASTRESGVPDRFTGSGSGTDFTLTISSVQAEDLAVYYCQNDYSSPFTFGSGTKLEIKRADAAPTVSIFPPSSEQLTSGGASVVCFLNNFYPKDINVKWKIDGSERQNGVLNSWTDQDSKDSTYSMSSTLTLTKDEYERHNSYTCEATHKTSTSPIVKSFNRNEC
3 |  |  |  |  | 377 nM | FG129-scFv (scFv, Order is leader, VH, 3xGGGGS, VL, 6xAla, 6xHis; The leader is left out as secreted from Expi293 cells; also called scFv129) scFv: EVQLVESGGGLVQPKGSLKLSCAASGFTFNTYAMNWVRQAPGKGLEWVARIRSKSNNYATYYADSVKDRFTISRDDSQSMLYLQMNNLKKEDTAMYYCVGYGSGGNYWGQGTSVTVSGGGGSGGGGSGGGGSDIVMTQSPSSLTVTAGEKVTMSCKSSQSLLNSGNQKNYLTWYQQKPGQPPKVLIYWASTRESGVPDRFTGSGSGTDFTLTISSVQAEDLAVYYCQNDYSSPFTFGSGTKLEIKRAAAAAAHHHHHH
